Residue numbers refer to the chain shown, from its start. In names and notes the source's numbering stands.

The results in this text go back to paper PMC8280269, “A novel mycothiol-dependent thiol–disulfide reductase in Corynebacterium glutamicum involving oxidative stress resistance” (3 Biotech, 2021).

The test system of one data set is Cys21. Description: UV-vis. The settings on record: 10 °C; poly-buffer: 10 mM sodium acetate, 10 mM sodium phosphate, 10 mM sodium borate, 10 mM sodium citrate, starting pH 9.4, titrated with 100 mM HCl; 20 μM protein; reduced protein, referenced to the oxidized protein (Cys mutants oxidized with tenfold excess H2O2); no ligand.
A further data set relates to Cys24. Put plainly: UV-vis. The settings on record: 10 °C; poly-buffer: 10 mM sodium acetate, 10 mM sodium phosphate, 10 mM sodium borate, 10 mM sodium citrate, starting pH 9.4, titrated with 100 mM HCl; 20 μM protein; reduced protein, referenced to the oxidized protein (Cys mutants oxidized with tenfold excess H2O2); no ligand.
The target of another data set is T1, NCgl2478 (Corynebacterium glutamicum, UniProt Q8NMK6, C24S).
T1 construct: gene Cgl2567; full-length, N-terminal His6 from pET28a, E. coli BL21(DE3); tag cut with enterokinase for activity assays
T1 sequence (Q8NMK6 1-245 C24S): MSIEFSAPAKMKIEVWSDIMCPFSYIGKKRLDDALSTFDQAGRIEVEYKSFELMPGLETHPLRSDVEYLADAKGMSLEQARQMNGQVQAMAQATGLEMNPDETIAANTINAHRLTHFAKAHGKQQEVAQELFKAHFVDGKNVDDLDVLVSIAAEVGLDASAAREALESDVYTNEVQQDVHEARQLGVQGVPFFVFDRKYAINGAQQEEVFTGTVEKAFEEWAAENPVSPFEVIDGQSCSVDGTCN
Description: NBD-Cl labelling and DTNB thiol count after H2O2 with MSH. The data set is classed as binding. The settings on record: covalent; mixed disulfide at Cys21 formed from the H2O2-oxidised sulfenic acid.

Substrate in the data set “purified protein”: CC(=O)N[C@@H](CSSCCO)C(=O)N[C@H]1[C@@H](O[C@@H]2[C@H](O)[C@H](O)[C@@H](O)[C@H](O)[C@H]2O)O[C@H](CO)[C@@H](O)[C@@H]1O
Put plainly: purified protein. The data set is classed as biochemical, Corynebacterium glutamicum. The settings on record: 500 μM MSH, 5 μM Mtr, 250 μM NADPH, 50 mM potassium phosphate pH 7.6, 25 °C, substrate formed in situ from HED and MSH.

The pKa is the pH at which an ionisable group is half protonated. The low end stands for a group that gives up its proton readily, the high end for a group that holds its proton tightly. On to “NCgl2478 (DsbA-like mycoredoxin / mycothiol-dependent thiol-disulfide reductase, annotated dithiol-disulfide isomerase DsbA) (Corynebacterium glutamicum (RES167, derived from ATCC 13032))”, for which the pKa result with Cys21 is recorded as “less than 6”; in the data set on Cys24, 8.09.
Regarding `CC(=O)N[C@@H](CS)C(=O)NC1[C@@H](O[C@@H]2[C@H](O)[C@H](O)[C@@H](O)[C@H](O)[C@H]2O)O[C@H](CO)[C@@H](O)[C@@H]1O` (stereo partly drawn) [MSH, 1D-myo-inosityl-2-[N-acetyl-L-cysteinyl] amido-2-deoxy-α-D-glucopyranoside], the “NBD-Cl labelling and DTNB thiol count after H2O2 with MSH” value on NCgl2478 is given as “MSH reacted with NCgl2478:C24S–SOH to form NCgl2478:C24S–SSM”.

B1: NCgl2478 (Corynebacterium glutamicum ATCC 13032) (protein)
chain: T1 sequence (Q8NMK6 1-245 C24S) with S24C
notes: full-length, N-terminal His6 from pET28a, E. coli BL21(DE3); tag cut with enterokinase for activity assays
In general, Km refers to the substrate concentration at which the rate is half of its maximum. By kcat is commonly meant the maximal rate divided by the concentration of active sites. In the case of B1, in the data set “purified protein”, the Km was determined as 510 ± 50 µM and the kcat came out at 8.55 ± 0.19 s⁻¹.

B2: NCgl2478 (Corynebacterium glutamicum ATCC 13032; C24S) (protein)
chain: T1 sequence (Q8NMK6 1-245 C24S)
notes: as for B1
Consider B2, for which, in the data set “purified protein”, the Km worked out at 460 ± 50 µM and the kcat stood at 11.37 ± 0.31 s⁻¹.

B3: Mrx1 (Corynebacterium glutamicum ATCC 13032) (protein)
chain: MSNVTIYATDWCPYCRSLLKGLDGQEYDLIDVDQDEEAGEWVKSVNDGNRIVPTVRYSDGTHATNPLAAEVIAKIEALA
notes: pET28a-mrx1, N-terminal His6, E. coli BL21(DE3); tag cut for activity assays
Consider B3, for which, in the data set “purified protein”, the Km is 540 ± 110 µM and the kcat was found to be 103.81 ± 3.14 s⁻¹.
